Molecular target: large-conductance Ca2+-activated potassium (BK) channel pore-forming α subunit (rat (endogenous in cerebral artery …, UniProt Q62976 1-1209))
Assay: FRET or BRET

Sequence of large-conductance Ca2+-activated potassium (BK) channel pore-forming α subunit (rat (Q62976 whole entry): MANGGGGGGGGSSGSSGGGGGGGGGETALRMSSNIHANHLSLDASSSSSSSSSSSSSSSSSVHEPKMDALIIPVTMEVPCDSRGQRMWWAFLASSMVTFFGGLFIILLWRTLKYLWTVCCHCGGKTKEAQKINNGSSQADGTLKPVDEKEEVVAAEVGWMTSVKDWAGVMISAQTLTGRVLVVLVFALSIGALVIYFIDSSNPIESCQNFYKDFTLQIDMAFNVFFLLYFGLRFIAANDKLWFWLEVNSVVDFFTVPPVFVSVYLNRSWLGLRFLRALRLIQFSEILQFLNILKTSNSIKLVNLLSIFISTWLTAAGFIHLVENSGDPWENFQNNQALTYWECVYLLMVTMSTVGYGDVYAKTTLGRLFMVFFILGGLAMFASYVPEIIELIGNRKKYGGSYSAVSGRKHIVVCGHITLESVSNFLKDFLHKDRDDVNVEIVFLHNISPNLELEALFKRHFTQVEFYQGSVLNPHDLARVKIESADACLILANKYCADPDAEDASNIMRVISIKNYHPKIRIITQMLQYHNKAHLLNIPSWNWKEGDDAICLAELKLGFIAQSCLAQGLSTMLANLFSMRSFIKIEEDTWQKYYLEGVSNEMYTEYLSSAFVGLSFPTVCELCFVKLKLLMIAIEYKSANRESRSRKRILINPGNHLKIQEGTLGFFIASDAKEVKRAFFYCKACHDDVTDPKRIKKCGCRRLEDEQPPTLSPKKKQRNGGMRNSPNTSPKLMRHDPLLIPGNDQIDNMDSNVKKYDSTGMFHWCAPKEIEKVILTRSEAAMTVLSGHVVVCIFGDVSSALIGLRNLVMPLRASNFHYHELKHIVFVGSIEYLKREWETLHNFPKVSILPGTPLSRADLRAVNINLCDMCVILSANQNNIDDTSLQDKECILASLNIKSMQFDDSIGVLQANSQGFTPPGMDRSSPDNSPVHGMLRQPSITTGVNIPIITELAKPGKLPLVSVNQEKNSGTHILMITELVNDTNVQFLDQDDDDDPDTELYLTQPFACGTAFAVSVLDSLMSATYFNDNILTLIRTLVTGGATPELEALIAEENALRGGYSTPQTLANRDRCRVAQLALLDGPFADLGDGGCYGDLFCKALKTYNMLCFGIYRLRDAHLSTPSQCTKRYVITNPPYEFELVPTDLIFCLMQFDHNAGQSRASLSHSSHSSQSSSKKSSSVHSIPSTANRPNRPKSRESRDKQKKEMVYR

B1: BK channel auxiliary β1 subunit (natural protein, UniProt P97678 1-191, looked up)
chain: MGKKLVMAQKRGETRALCLGVAMVVCAAITYYILGTTVLPLYQKSVWTQESTCHLVETNIKDQEELEGRKVPQYPCLWVNVSAVGRWAMLYHTEDTRDQNQQCSYIPRNLDNYQTALVDVKKVRANFYKHHNFYCFSAPQVNETSVVYQRLYGPQILLFSFFWPTFLLTGGLLIIAMVKLNRSLSVLAAQK
fold increase of normalized FRET, 60 mM K+ against 6 mM K+: ~3.4 fold

Source: paper PMC5812274 (Science signaling, 2017)
